This is an account of results in the supplement of paper PMC11246515.

This series can be described thus: total protein half-life in vivo (active degradation + dilution); higher = more stable protein.
The mark [1] stands for this setting: E. coli NCM3722 delta-clpP delta-lon delta-hslV, growth: N-lim chemostat, doubling time 6 h.
Setting [2] is: E. coli NCM3722 delta-clpP, growth: N-lim chemostat, doubling time 6 h.
[3] abbreviates: E. coli NCM3722 delta-hslV, growth: N-lim chemostat, doubling time 6 h.
The mark [4] stands for this setting: E. coli NCM3722 delta-lon, growth: N-lim chemostat, doubling time 6 h.
The mark [5] stands for this setting: E. coli NCM3722 delta-smpB, growth: N-lim chemostat, doubling time 6 h.
[6] abbreviates: wild type E. coli NCM3722, growth: C-lim chemostat, doubling time 3 h.
[7] abbreviates: wild type E. coli NCM3722, growth: C-lim chemostat, doubling time 6 h.
[8] abbreviates: wild type E. coli NCM3722, growth: C-lim chemostat, doubling time 12 h.
Where [9] appears, read: wild type E. coli NCM3722, growth: N-lim chemostat, doubling time 6 h.
Setting [10] is: wild type E. coli NCM3722, growth: N-lim chemostat, doubling time 12 h.
The mark [11] stands for this setting: wild type E. coli NCM3722, growth: P-lim chemostat, doubling time 6 h.
[12] abbreviates: wild type E. coli NCM3722, growth: P-lim chemostat, doubling time 12 h.

± gives the standard deviation of the averaged measurements.

Consider “MNNEPLRPDPDRLLEQTAAPHRGKLKVFFGACAGVGKTWAMLAEAQRLRAQGLDIVVGVVETHGRKDTAAMLEGLAVLPLKRQAYRGRHISEFDLDAALARRPALILMDELAHSNAPGSRHPKRWQDIEELLEAGIDVFTTVNVQHLESLNDVVSGVTGIQVRETVPDPFFDAADDVVLVDLPPDDLRQRLKEGKVYIAGQAERAIEHFFRKGNLIALRELALRRTADRVDEQMRAWRGHPGEEKVWHTRDAILLCIGHNTGSEKLVRAAARLASRLGSVWHAVYVETPALHRLPEKKRRAILSALRLAQELGAETATLSDPAEEKAVVRYAREHNLGKIILGRPASRRWWRRETFADRLARIAPDLDQVLVALDEPPARTINNAPDNRSFKDKWRVQIQGCVVAAALCAVITLIAMQWLMAFDAANLVMLYLLGVVVVALFYGRWPSVVATVINVVSFDLFFIAPRGTLAVSDVQYLLTFAVMLTVGLVIGNLTAGVRYQARVARYREQRTRHLYEMSKALAVGRSPQDIAATSEQFIASTFHARSQVLLPDDNGKLQPLTHPQGMTPWDDAIAQWSFDKGLPAGAGTDTLPGVPYQILPLKSGEKTYGLVVVEPGNLRQLMIPEQQRLLETFTLLVANALERLTLTASEEQARMASEREQIRNALLAALSHDLRTPLTVLFGQAEILTLDLASEGSPHARQASEIRQHVLNTTRLVNNLLDMARIQSGGFNLKKEWLTLEEVVGSALQMLEPGLSSPINLSLPEPLTLIHVDGPLFERVLINLLENAVKYAGAQAEIGIDAHVEGENLQLDVWDNGPGLPPGQEQTIFDKFARGNKESAVPGVGLGLAICRAIVDVHGGTITAFNRPEGGACFRVTLPQQTAPELEEFHEDM”, for which the “total protein half-life in vivo” value by setting is: under setting [1], 6.66 ± 0.19 h; under setting [2], 6.31 ± 0.4 h; under setting [3], 6.32 ± 0.48 h; under setting [4], 5.21 ± 0.13 h; under setting [5], 5.88 ± 0.37 h; under setting [6], 3.44 ± 0.035 h. For the same sequence, the “total protein half-life in vivo” value is, setting by setting: under setting [7], 6 ± 0.74 h; under setting [8], 12.1 ± 1 h; under setting [9], 5.56 ± 0.21 h; under setting [10], 10.7 ± 0.66 h; under setting [11], 6.348 ± 0.059 h; under setting [12], 11.6 ± 0.51 h.

On to “MQTSPLLTQLMEALRCLPGVGPKSAQRMAFTLLQRDRSGGMRLAQALTRAMSEIGHCADCRTFTEQEVCNICSNPRRQENGQICVVESPADIYAIEQTGQFSGRYFVLMGHLSPLDGIGPDDIGLDRLEQRLAEEKITEVILATNPTVEGEATANYIAELCAQYDVEASRIAHGVPVGGELEMVDGTTLSHSLAGRHKIRF [P0A7H6]”, for which the “total protein half-life in vivo” value reads like this: under setting [1], 5.56 ± 0.29 h; under setting [2], 5.19 ± 0.32 h; under setting [3], 4.36 ± 0.27 h; under setting [4], 4.59 ± 0.36 h; under setting [5], 4.21 ± 0.85 h; under setting [6], 2.52 ± 0.099 h. In addition, the “total protein half-life in vivo” value worked out at 4.09 h under setting [7]; 8.57 ± 0.99 h under setting [8]; 4.67 h under setting [9]; 6.74 ± 0.68 h under setting [10]; 4.79 ± 0.23 h under setting [11]; 8.59 h under setting [12].

With “MSNVQEWQQLANKELSRREKTVDSLVHQTAEGIAIKPLYTEADLDNLEVTGTLPGLPPYVRGPRATMYTAQPWTIRQYAGFSTAKESNAFYRRNLAAGQKGLSVAFDLATHRGYDSDNPRVAGDVGKAGVAIDTVEDMKVLFDQIPLDKMSVSMTMNGAVLPVLAFYIVAAEEQGVTPDKLTGTIQNDILKEYLCRNTYIYPPKPSMRIIADIIAWCSGNMPRFNTISISGYHMGEAGANCVQQVAFTLADGIEYIKAAISAGLKIDDFAPRLSFFFGIGMDLFMNVAMLRAARYLWSEAVSGFGAQDPKSLALRTHCQTSGWSLTEQDPYNNVIRTTIEALAATLGGTQSLHTNAFDEALGLPTDFSARIARNTQIIIQEESELCRTVDPLAGSYYIESLTDQIVKQARAIIQQIDEAGGMAKAIEAGLPKRMIEEASAREQSLIDQGKRVIVGVNKYKLDHEDETDVLEIDNVMVRNEQIASLERIRATRDDAAVTAALNALTHAAQHNENLLAAAVNAARVRATLGEISDALEVAFDRYLVPSQCVTGVIAQSYHQSEKSASEFDAIVAQTEQFLADNGRRPRILIAKMGQDGHDRGAKVIASAYSDLGFDVDLSPMFSTPEEIARLAVENDVHVVGASSLAAGHKTLIPELVEALKKWGREDICVVAGGVIPPQDYAFLQERGVAAIYGPGTPMLDSVRDVLNLISQHHD”, under setting [6], the “total protein half-life in vivo” value is 3.42 h.

For the sequence “MNIELLQQLCEASAVSGDEQEVRDILINTLEPCVNEITFDGLGSFVARKGNKGPKVAVVGHMDEVGFMVTHIDESGFLRFTTIGGWWNQSMLNHRVTIRTHKGVKIPGVIGSVAPHALTEKQKQQPLSFDEMFIDIGANSREEVEKRGVEIGNFISPEANFACWGEDKVVGKALDNRIGCAMMAELLQTVNNPEITLYGVGSVEEEVGLRGAQTSAEHIKPDVVIVLDTAVAGDVPGIDNIKYPLKLGQGPGLMLFDKRYFPNQKLVAALKSCAAHNDLPLQFSTMKTGATDGGRYNVMGGGRPVVALCLPTRYLHANSGMISKADYEALLTLIRGFLTTLTAEKVNAFSQFRQVD”, the “total protein half-life in vivo” value is, setting by setting: under setting [4], 3.4 h; under setting [5], 3.85 ± 0.0073 h; under setting [6], 2.53 h; under setting [9], 3.72 h; under setting [11], 4.06 h; under setting [12], 9.711 ± 0.074 h.

Turning to “MKNTKLLLAIATSAALLTGCQNTHGIDTNMAISSGLNAYKAATLSDADAKAIANQGCAEMDSGNQVASKSSKYGKRLAKIAKALGNNINGTPVNYKVYMTSDVNAWAMANGCVRVYSGLMDMMNDNEIEGVLGHELGHVALGHSLAEMKASYAIVAARDAISATSGVASQLSRSQLGDIAEGAINAKYSRDKESEADDFSFDLLKKRGISTQGLVGSFETLASLDGGRTQSMFDSHPPSTERAQHIRDRIASGK”, the “total protein half-life in vivo” value under setting [2] worked out at 3.87 h, the “total protein half-life in vivo” value under setting [3] worked out at 4.19 h and the “total protein half-life in vivo” value under setting [4] worked out at 5.88 h.

Regarding “MIKVYGVPGWGSTISELMLTLADIPYQFVDVSGFDHEGASRELLKTLNPLCQVPTLALENDEIMTETAAIALMVLDRRPDLAPPVGRAERQLFQRLLVWLVANVYPTFTFADYPERWAPDAPEQLKKNVIEYRKSLYIWLNSQLTAEPYAFGEQLTLVDCYLCTMRTWGPGHEWFQDNATNISAIADAVCQLPKLQEVLKRNEII”, the “total protein half-life in vivo” value is, setting by setting: under setting [1], 5.47 ± 0.78 h; under setting [2], 4.57 ± 0.21 h; under setting [3], 4.93 ± 0.096 h; under setting [4], 4.6 h; under setting [5], 4.48 ± 0.6 h; under setting [7], 4.99 h. Moreover, the “total protein half-life in vivo” value is, setting by setting: under setting [9], 4.76 h; under setting [11], 6.17 h; under setting [12], 12.2 h.

Turning to “MPNITWCDLPEDVSLWPGLPLSLSGDEVMPLDYHAGRSGWLLYGRGLDKQRLTQYQSKLGAAMVIVAAWCVEDYQVIRLAGSLTARATRLAHEAQLDVAPLGKIPHLRTPGLLVMDMDSTAIQIECIDEIAKLAGTGEMVAEVTERAMRGELDFTASLRSRVATLKGADANILQQVRENLPLMPGLTQLVLKLETLGWKVAIASGGFTFFAEYLRDKLRLTAVVANELEIMDGKFTGNVIGDIVDAQYKAKTLTRLAQEYEIPLAQTVAIGDGANDLPMIKAAGLGIAYHAKPKVNEKAEVTIRHADLMGVFCILSGSLNQK [P0AGB0]”, the “total protein half-life in vivo” value under setting [1] was 5.32 ± 0.097 h; the “total protein half-life in vivo” value under setting [2] was found to be 5.09 ± 0.32 h; the “total protein half-life in vivo” value under setting [3] was determined as 5.09 ± 0.31 h; the “total protein half-life in vivo” value under setting [4] worked out at 5.43 ± 0.31 h; the “total protein half-life in vivo” value under setting [5] came out at 5.08 ± 0.26 h; the “total protein half-life in vivo” value under setting [6] amounted to 3.01 ± 0.1 h. Moreover, the “total protein half-life in vivo” value is 5.07 ± 0.26 h under setting [7]; 10.3 ± 0.85 h under setting [8]; 4.819 ± 0.032 h under setting [9]; 8.79 ± 0.6 h under setting [10]; 5.83 ± 0.23 h under setting [11]; 11.5 ± 0.32 h under setting [12].
